{"source": "patent US20020102568", "about": "“Nucleic acid sensor molecules” (published 2002)", "target": "ERK2 (unactivated, unphosphorylated) (UniProt P28482 P28482:2-360)", "sequence (P28482 2-360, one chain of several)": "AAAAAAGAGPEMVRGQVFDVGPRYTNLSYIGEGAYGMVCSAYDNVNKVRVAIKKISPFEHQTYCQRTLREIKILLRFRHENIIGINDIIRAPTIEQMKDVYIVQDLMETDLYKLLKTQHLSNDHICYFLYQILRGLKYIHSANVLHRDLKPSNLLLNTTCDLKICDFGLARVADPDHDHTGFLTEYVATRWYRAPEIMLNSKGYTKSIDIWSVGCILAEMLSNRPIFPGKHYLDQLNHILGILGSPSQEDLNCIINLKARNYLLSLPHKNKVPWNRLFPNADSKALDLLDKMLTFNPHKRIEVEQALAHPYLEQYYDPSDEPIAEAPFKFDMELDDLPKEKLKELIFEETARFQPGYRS", "test": "cleavage_in_vitro; half-maximal allozyme activation; about 100-fold activation by ERK2; 100 mM KCl, 1 mM MgCl2, 10 mM Tris 7.5, 34 C; text cites SEQ 39, listing gives Erk sensor molecule as SEQ 42", "method": "To examine the dependence of activation on the concentration of ERK2, various amounts of ERK2 were added to different reactions (FIG. 31b). One half-maximal nucleic acid sensor molecule activation is promoted by ˜800 pg/μl ERK2.", "data": [{"binder": "ERK2-responsive hammerhead allozyme (ssRNA) RNA: GCGUGACCUGAUGAGUCACGCUAAGGAGGAUUUCCGAAAGCGGCUACGGUCCGCCAGUGUUACGAAACGUUCCC", "values": [{"measurement": "EC50", "value": "~0.8", "unit": "µg/mL"}]}]}
